The record followed here is article PMC7705432 (Cell Research, 2020).

The experiment addresses T1, SARS-CoV-2 S trimer (SARS-CoV-2, Wuhan-Hu-1 (GenBank …, stabilised)).
T1 construct: also called Spike (S) protein
The experiment can be described thus: cryo-EM structure. To be noted: both partners purified.

The term stoichiometry N denotes a count of units in the complex or per binding partner.

B1: H014 Fab (Fab, V domains shown)
VH: VQLVQSGAEVKKPGATVKISCKVSGYSFSNYYIHWVKQAPGKSLEWIGYIDPFNGGTSDNLKFKGAATLTADTSTDTAYMELSSLRSEDTAVYYCARSEYDPYYVMDYWGQGTTVTVSS
VL: IVLTQSPFQSVSPKEKVTITCRASQSISSNLHWYQQKPDQSPKLLIKYASQSISGIPSRFSGSGSGTDFTLTINSLEAEDFGIYFCQQTNFWPYIFGQGTKLEIL
With B1, the “stoichiometry N” value was found to be 3 Fabs per S trimer.

B2: P17 Fab (Fab, V domains shown)
VH: QQLVESGGGVVQPGRSLRLSCAASGFTFSSYAMHWVRQAPGKGLEWVAVISYDGSNKYYADSVKGRFTISRDNSKNTLYLQMNSLRAEDTAVYYCARHATLMNNKDIWGQGTLVTVSS
VL: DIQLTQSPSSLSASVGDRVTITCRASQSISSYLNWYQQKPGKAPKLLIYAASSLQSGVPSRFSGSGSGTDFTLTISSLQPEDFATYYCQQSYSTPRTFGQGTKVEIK
notes: also called P17 Fabs
Consider B2, for which the “stoichiometry N” value worked out at 3 Fabs per S trimer.
